According to article PMC12405362:

Substrate: O=C(/C=C/c1ccc(O)c(O)c1)O[C@@H]1C[C@](O)(C(=O)O)C[C@@H](O)[C@H]1O
Assay: purified protein
Settings: tri-buffer (0.1 M acetic acid, 0.1 M Tris, 20 mM MES) pH 6, 30°C, 15 min, hydrolysis

B1: CiCQE3 (Cichorium intybus) (protein)
chain: CYPSIISFGDSLADTGNVKEMASKSNVHAPHFLFPPYGETFFNKPTGRCSNGRLIIDFVAESLGLPLIPPSLGSKTNVHVTGLGQGVNYAVAGATALDSSFHEERGVEIWTNASLGVQLGWFKDSLSSICSSVADCRQLIGQSLVLMGEIGGNDYNHALVAGKSIDEVETYVPFVINTIVSAVNELIELGAETLVIPGNLPIGCSAAYLTIFYGSSEVQYDNSTGCIITLNKLAEYHNEFLQKKLHQIRELHPDVNIIYADYYNAAMQFFRSPNKYGFTNGALKACCGGGGPFNYNPSIDCADPASTSCAQPDTYVNWDGLHLTEAAYRVIFKSIFEGSYTTPRFNALCPTSMLQGVGGFSSSI
B1 gave a Km of 1740 µM and a kcat of 0.466 s⁻¹.
